Test results taken from patent US20090105562A1, “SYSTEM AND METHODS FOR SCREENING OR ANALYZING TARGETS” (TAIPEI VETERANS GENERAL HOSPITAL, priority 2007, published 2009).

Tests used:
neural stem cell = assay: DA and 5-HT in dialysate of neural stem cell medium after NGF induction (microdialysis, HPLC-ED); assay type: cell-based; conditions: after induction with polyornithine/laminin-coating plate and NGF of neural stem cell
Description: (§1) A microdialysis system consists of a basic microdialysis pump (CMA/100, CMA, Stockholm, Sweden), a fraction collector (CMA/140, CMA), and a microdialysis probe cemented to a Petri dish (FIG. 3). The dialysis probe was made of a dialysis membrane 30 mm in length, 150 μm in outer diameter, and a nominal molecular weight cutoff of 13,000. Ringer solution (8.6 g/L NaCl, 0.3 g/L KCl, and 0.33 g/L CaCl2) was perfused through the probe at a flow rate of 2 μl/min. Microdialysate samples were collected every 10 min. Each microdialysate of 10 μl was injected manually into the chromatographic system and was assayed on the same sampling day. The Liquid chromatography and electrochemical detection contains a model HTEC-500 LC-ED system (Eicom, Kyoto, Japan), consisting of a three-electrode cell with Ag/AgCl as the reference electrode, a counter-electrode, and a graphite electrode as the working electrode, were used to measure dopamine (DA) and serotonin (5-HT). The experiment employed a graphite working electrode with a 25-μm gasket with the applied potential set at +450 mV versus Ag/AgCl. The column used for the separation of DA and 5-HT was a PP-ODS column (4.6×30 mm, Eicom) at room temperature (25° C.). […]

PC-12 cells = assay: DA and 5-HT in dialysate of PC-12 cells medium after NGF induction (HPLC-ED); assay type: cell-based; conditions: after induction with NGF of PC-12 cells
Description: as §1

Bcl-2 = Bcl-2 protein expression in NSCs by western blot and immunocytochemistry; assay type: cell-based, rat; conditions: treatment with either agent alone
Description: After the treatment with IM, the cell lysates of the NSCs were collected and the concentration of protein was determined by using the Protein Assay kit (Bio-Rad, Hercules, Calif., USA). Cell extracts with sample buffer were boiled for 5 minutes and then separated by 10% SDS-PAGE gel. After electrophoresis, the gel was transferred onto a PVDF membrane for immunoblotting. The membrane was first blocked by incubation in non-fat milk at room temperature for 2 hours, then incubated with anti-Bcl-2 antibody (Upstate Biotechnology Inc, Waltham, Mass., USA), and anti-β actin (Chemicon International Inc, Temecula, Calif., USA) for 2 hours at room temperature, washed five times with Tris-Buffered Saline Tween-20 (TBST), and then incubated further at room temperature with horseradish peroxidase-conjugated secondary antibody for 2 hours. Then the membrane was washed six times with TBST and specific bands were made visible by chemiluminescence (Santa Cruz Biotechnology, Santa Cruz, Calif., USA).
(§2) Double-stranded, short interfering RNA (siRNA) of BDNF and Bcl-2 were chemically synthesized by Ambion Inc., Austin, Tex., USA). The sense and antisense sequences of BDNF were designed as follows: Sense: […]tt; Antisense: AGCTTAAAAAGAG CTGtt, starting from nucleotide 137 of the Bcl-2 sequence (accession number L14680). The sense and antisense sequences of Bcl-2 were designed as follows: Sense: GCGCUGGAUAUAACUUCUUtt; Antisense: AAGAAGUUAUAUC CAGCGCtt, starting from nucleotide 137 of the Bcl-2 sequence (accession number L14680). In this test, the siRNA control used was siRNA-Cy3 (QIAGEN; sense sequence: UUCUCCGAACGUGU CACGUdTdT-3′-Cy3 and the complement 5′-ACGUGACACGUUCGGAGAAdTdT-3′-Cy3) as an irrelevant control. The transfection of siRNA was performed using Lipofectamine 2000 (Invitrogen, Carlsbad, Calif., USA) according to the manufacturer's instructions. In brief, cells were harvested with 0.25% trypsin, 1 mM ethylenediaminetetraacetic acid (EDTA) in phosphate buffered saline (PBS) without Ca^2+ and Mg^2+, and plated in six-well plates at 10^5 per cm^2. Then 3.5 μl siRNA (100 μM solution) was mixed with 125 μl serum-free culture medium for 5 minutes at room temperature. During this incubation period, 5 μl of Lipofectamine 2000 was diluted in 125 μl serum-free culture medium. These two mixtures were combined, mixed gently, and incubated for 20 minutes at room temperature for complex formation. This 250 μl of siRNA-Lipofectamine mixture was then added into the cells in a final volume of 2.5 ml per well. The transfected cells were cultured and fed daily with fresh medium until they were assayed.
An avidin-biotin complex method was used for the immunohistochemical staining in the differentiated NSCs. Following washes with the 3% hydrogen peroxide, sodium azide and antigens were retrieved using a microwave. Each slide was then treated with antibodies for Bcl-2 (Upstate Biotechnology, Waltham, Mass., USA), Nestin (Chemicon, Temecula, Calif., USA), 4′, 6-diamidino-2-phenylindole (DAPI; Chemicon, Temecula, Calif., USA) and MAP2 (Chemicon, Temecula, Calif., USA). Immunoreactive signals were detected with a mixture of biotinylated rabbit anti-mouse IgG and Fluoresave (Calbiochem, La Jolla, Calif., USA) under confocal microscopy (Olympus, FV300). Each individual sample was analyzed in triplicate. Furthermore, apoptotic cells were identified by the TUNEL method (In Situ Cell Death Detection Kit, POD, Roche Boehringer Mannheim Corp., IN, USA) as described in Chiou et al., J. Immunol. 167, 4098-4103, 2001. Briefly, the cells with cover slips were washed with 1× phosphate buffered saline (PBS), fixed with 4% of paraformaldehyde for 10 minutes, permeabilized with 0.1% of triton X-100 for 5 mins, and incubated with the TUNEL reagent provided for 1 hour. Chromogenic development was then applied with 3-amino-9-ethyl-carbazole, and slides were counterstained with H & E stain. […]

LPS-treated NSCs [1] = assay: Cell survival rate of LPS-treated NSCs; assay type: cell-based, rat; conditions: vs only LPS-treated NSCs; LPS 100 ng/ml
Description: (§3) IM was purchased from Sigma Chem. Co., St Louis, Mo., USA. NSCs were seeded on 24-well plates at a density of 2×10^4 cells/well in medium, followed by methyl thiazol tetrazolium assay (MTT assay) (Sigma-Aldrich Co., St Louis, Mo., USA) for cell viability. NSCs were incubated with 0.25 mg/ml MTT for 4 hours at 37° C. and the reaction was terminated by the addition of 100% isopropanol. The amount of MTT fromazon product was determined using a microplate reader and the absorbance was measured at 560 nm (SpectraMax 250, Molecular Devices, Sunnyvale, Calif., USA). NSCs were exposed to 0, 1, 2, 5, 10, 20, 30, 40, 50, 100, 200, and 300 μM of IM for 1, 3, 5, and 7 days, respectively. The activities of caspases 8 and 3 (Medical and Biological Laboratories Co., Ltd., Nagoya, Japan), and the concentration of IL-6, IL-1 and TNF-α (Pharmingen, San Diego, Calif., USA) were determined by ELISA kits and quantified by reading at 490 nm (MRX; Dynatech Laboratories, Chantilly, Va., USA). Each individual sample was analyzed in triplicate.
as §2, with “Then 3.5 μl siRNA (100 μM solution) was mixed with 125 μl serum-free culture medium for 5 minutes at room temperature. During this incubation period, 5 μl of Lipofectamine 2000 was diluted in 125 μl serum-free culture medium. These two mixtures were combined, mixed gently, and incubated for 20 minutes at room temperature for complex formation. This 250 μl of siRNA-Lipofectamine mixture was then added into the cells in a final volume of 2.5 ml per well. The transfected cells were cultured and fed daily with fresh medium until they were assayed.” left out

LPS-treated NSCs [2] = assay: LPS-induced apoptotic activity in NSCs, caspase 8 and 3 ELISA; assay type: cell-based, rat; conditions: vs only LPS-treated NSCs; p<0.05
Description: as §3, §2

LPS-treated NSCs [3] = assay: ELISA of IL-1β, IL-6 and TNF-α in LPS-treated NSCs; assay type: cell-based, rat; conditions: vs only LPS-treated NSCs; IM 3 μM; p<0.05
Description: as §3, §2

In the case of “NGF: NGF used to induce neural stem cells / PC-12 cells”, the “5-HT concentration in dialysate” value (neural stem cell; basal 0.18 ng/ml) is reported as 2.84 ng/mL, the “DA concentration in dialysate” value (neural stem cell; basal 6.04 ng/ml) is reported as 46.9 ng/mL and the “5-HT concentration in dialysate” value (PC-12 cells; basal 0.18 ng/ml) is reported as 2.94 ng/mL. The “DA concentration in dialysate” value (PC-12 cells; basal 6.04 ng/ml) was 50.06 ng/mL.

B1: BDNF: BDNF recombinant protein (protein, UniProt P23560 19-247, looked up)
Neurotrophic factor BDNF …: APMKEANIRGQGGLAYPGVRTHGTLESVNGPKAGSRGLTSLADTFEHVIEELLDEDQKVRPNEENNKDADLYTSRVMLSSQVPLEPPLLFLLEEYKNYLDAANMSMRVRRHSDPARRGELSVCDSISEWVTAADKKTAVDMSGGTVTVLEKVPVSKGQLKQYFYETKCNPMGYTKEGCRGIDKRHWNSQCRTTQSYVRALTMDSKKRIGWRFIRIDTSCVCTLTIKRGR
For B1, the “Bcl-2 expression in NSCs” value (Bcl-2) was “activate”, the “cell survival rate in LPS-treated NSCs” value (LPS-treated NSCs [1]) was “significantly increases” and the “apoptotic activities in LPS-treated NSCs” value (LPS-treated NSCs [2]) was “significantly inhibited”. For the same molecule, the “IL-1β production in LPS-treated NSCs” value (LPS-treated NSCs [3]) was “significantly inhibited”, the “IL-6 production in LPS-treated NSCs” value (LPS-treated NSCs [3]) was “significantly inhibited” and the “TNF-α production in LPS-treated NSCs” value (LPS-treated NSCs [3]) was “significantly inhibited”.
